Measured values taken from patent US20220396632A1 (VERSEAU THERAPEUTICS, published 2022).
Positions count from the first letter of the chain named.

How the values were obtained:
[1] = target: T1, Biotin PSGL-1(42-62) D50A peptide (C-terminal Lys-biotin); test: ELISA; against wild-type PSGL-1 42-62
T1 peptide: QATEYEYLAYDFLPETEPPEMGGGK

[2] = target: T2, Biotin PSGL-1(42-62) L49A peptide (C-terminal Lys-biotin); test: alanine-scan ELISA, streptavidin-immobilized biotin peptide
T2 peptide: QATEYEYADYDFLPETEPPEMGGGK

[3] = target: T3, Biotin PSGL-1(42-62) L54A peptide (C-terminal Lys-biotin); test: as above
T3 peptide: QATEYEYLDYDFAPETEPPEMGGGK

[4] = target: T4, Biotin PSGL-1(42-62) P55A peptide (C-terminal Lys-biotin); test: as above
T4 peptide: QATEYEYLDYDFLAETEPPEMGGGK

[5] = target: T5, Biotin PSGL-1(42-62) E56A peptide (C-terminal Lys-biotin); test: as above
T5 peptide: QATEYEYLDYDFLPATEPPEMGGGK

42-80 = target: T6, 42-80 (C-terminal Lys-biotin); test: ELISA, streptavidin-immobilized biotin peptide, 10 nM mAb [cont.]
T6 construct: also called Biotin PSGL-1(42-80) peptide
T6 peptide: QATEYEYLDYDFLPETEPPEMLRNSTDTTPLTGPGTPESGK
Procedure: (§1) A typical ELISA experiment involved binding of a single concentration or serially diluted mAb in assay buffer (3% BSA in PBS containing 0.05% Tween®20, pH 7.4) onto BSA blocked high binding microtiter plate half-wells (Corning Cat. #3690), which contained PSGL-1 protein or streptavidin-immobilized biotin peptide. After incubation for 45 min. at 37° C., the plate was washed 3 times with wash buffer (PBS containing 0.05% Tween®20, pH 7.4), and an appropriate HRP-conjugated secondary antibody added (25 ul/well) (HRP goat anti-mouse or anti-human IgG). After 45 min. incubation at 37° C., the plate was washed and antibody bound to plate-immobilized target was determined at A450 nm using HRP substrate (3,3′5,5′-tetramethylbenzidine (TMB)). For each antibody, duplicate values were averaged and assay background subtracted.

[6] = target: T5, Biotin PSGL-1(42-62) E56A peptide; test: ELISA; against wild-type PSGL-1 42-62
[7] = target: T1, Biotin PSGL-1(42-62) D50A peptide; test: alanine-scan ELISA, streptavidin-immobilized biotin peptide
[8] = target: T7, Biotin PSGL-1(42-62) F53A peptide (C-terminal Lys-biotin); test: as above
T7 peptide: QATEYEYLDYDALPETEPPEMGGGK

[9] = target: T8, Biotin PSGL-1(42-62) E45A peptide (C-terminal Lys-biotin); test: ELISA; against wild-type PSGL-1 42-62
T8 peptide: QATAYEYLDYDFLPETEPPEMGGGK

[10] = target: T9, Biotin PSGL-1(42-62) Y46A peptide (C-terminal Lys-biotin); test: ELISA; against wild-type PSGL-1 42-62
T9 peptide: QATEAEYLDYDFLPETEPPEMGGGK

[11] = target: T3, Biotin PSGL-1(42-62) L54A peptide; test: ELISA; against wild-type PSGL-1 42-62
P60A = target: T10, P60A (C-terminal Lys-biotin); test: alanine-scan ELISA, streptavidin-immobilized biotin peptide [cont.]
T10 construct: alanine-scan peptide; also called Biotin PSGL-1(42-62) P60A peptide; 60P
T10 peptide: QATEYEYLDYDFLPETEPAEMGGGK

[12] = target: T9, Biotin PSGL-1(42-62) Y46A peptide; test: as above
[13] = target: T1, Biotin PSGL-1(42-62) D50A peptide; test: as above
[14] = target: T11, Biotin sY51 PSGL-1(42-62) peptide (human, sulfotyrosine at Y51; C-terminal Lys-biotin); test: ELISA, plate-bound peptide
T11 construct: also called Y51(SO3) PSGL-1(42-62)
T11 peptide: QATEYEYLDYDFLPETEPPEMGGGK

[15] = target: T12, Biotin PSGL-1(105-125) peptide (human, N-terminal acetyl; C-terminal Lys-biotin); test: ELISA, streptavidin-bound peptide
T12 peptide: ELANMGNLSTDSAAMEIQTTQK
Procedure: as §1

B1: 18F02 (antibody, V domains shown)
VH: QVQLQQPGAELVKPGASVKLSCKASGYTFTSYWMHWVKQRPGQGLEWIGMIHPNSGRTNYNEKFKSKATLTVDKSSSTAYMQLSSLTSEDSAVYYCARSDYWGQGTTLTVSS
VL: DIVMTQAAFSNPVTLGTSASISCRSSKSLLHSDGITYLYWFLQRPGQSPQLLIYRMSNLASGVPDRFSGSGSGTDFTLRISRVEAEDVGVYYCAQMLEFPRTFGGGTKLEIK
notes: From mouse immunisation; only variable domains given
EC50Ala/EC50 wt [1]: 35.6 fold
binding result [2]: binds
binding result [3]: binds
binding result [4]: binds
binding result [5]: binds
binding result (42-80): binds

B2: 43B6 (antibody, V domains shown)
VH: EVQLQQSGPDLVKPGALVKISCKASGYSFTAYYIHWVKQSHGKSLEWIGRVNPNTGGTSYNPKFKGKAILNVDKSSSTAYMELRSLTSEDSAVYYCARSGSPYYRYDDWGQGTTLTVSS
VL: ENVLTQSPAIMSASPGEKVTMTCRASSTVNSTYLHWFQQKSGASPKLWIYGSSNLASGVPARFSGSGSGTSYSLTISSVEAEDAATYYCQQYSGYPLTFGAGTTLELK
notes: Control anti-PSGL-1 mAb, recombinant; only variable domains given; also called 43B3
EC50Ala/EC50 wt [6]: 22.3 fold
binding result [7]: binds
binding result [8]: binds

B3: 16L15 (antibody, V domains shown)
VH: DVKLVESGGGLVKLGGSLKLSCAASGFTFSSYYMSWVRQTPEKRLEWVATISNGGGSTYYPDSVKDRFTISRDNAKNTLYLQMSSLNSEDTAVYYCAKPLYYSNPWFAYWGQGTLVTVSA
VL: DVLLTQTPLSLPVSLGDQASISCRSSQSIVHSNGNTYLEWYLQKPGQSPKLLIYKVSNRFSGVPDRFSGSGSGTDFTLKISRVEAEDLGVYYCFQGSHVPRTFGGGTKLEIK
notes: as for B1
EC50Ala/EC50 wt [9]: 5.6 fold
EC50Ala/EC50 wt [10]: 4.7 fold

B4: 9F9 (antibody, V domains shown)
VH: EVQLVETGGGLVQPKGSLKLSCAASGFTFNTNAMNWVRQAPGKGLEWVARIRSKSNNYATYYADSVKDRFTISRDDTQSMIYLQMNNLKTEDTGMYYCVRGGSYWYFDVWGAGTTVTVSS
VL: B3 VL with L4M, H31N, R101W
notes: Control anti-PSGL-1 mAb, recombinant; only variable domains given; also called 9F6
EC50Ala/EC50 wt [11]: 14.4 fold
binding result (P60A): binds
binding result [12]: binds
binding result [13]: binds

B5: 20I15 (antibody, V domains shown)
VH: EVKLVESGGGLVQPGGSLSLSCAASGFTFTDYYMSWVRQPPGKALEWLGFIRNKANGYTTEYSASVKGRFTISRDNSQSILYLQMNALRAEDSATYYCARTYLRRGYFDVWGTGTTVTVSS
VL: DIVLTQSPASLAVSLGQRATISCRASKSVSTSGYSYMHWFQQKPGQPPKLLIYLASNLESGVPARFSGSGSGTDFTLNIHPVEEEDAATYYCQHSRELPLTFGAGTKLELK
notes: From mouse immunisation; only variable domains given; also called 20115
fold weaker binding than to the peptide with all 3 sulfated tyrosines [14]: ~300 fold

B6: 16E17 (antibody, V domains shown)
VH: QIQLVQSGPELKKPGETVKISCKASGYAFTTYGMSWVKQAPGKGLKWMGWINTYSGVPKYADDFKGRFAFSLETSASTAYLHINNLKNEDTATYFCGRHYYGSSYFDYWGQGTTLTVSS
VL: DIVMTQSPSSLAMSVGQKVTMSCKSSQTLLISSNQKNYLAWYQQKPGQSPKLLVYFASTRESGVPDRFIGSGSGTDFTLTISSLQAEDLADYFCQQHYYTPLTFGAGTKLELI
notes: as for B1
fold weaker binding than to PSGL-1(ECD)-hFc1 [15]: ~20 fold
